Laboratory results: publication PMC3072023 (Biochemistry, 2010)

Biological target: the molecule itself
Experiment: crystal structure

B1: GluA2 S1S2 flop (ligand-binding domain of rat GluA2o) (domain or fragment)
chain: GANKTVVVTTILESPYVMMKKNHEMLEGNERYEGYCVDLAAEIAKHCGFKYKLTIVGDGKYGARDADTKIWNGMVGELVYGKADIAIAPLTITLVREEVIDFSKPFMSLGISIMIKKGTPIESAEDLSKQTEIAYGTLDSGSTKEFFRRSKIAVFDKMWTYMRSAEPSVFVRTTAEGVARVRKSKGKYAYLLESTMNEYIEQRKPCDTMKVGGNLDSKGYGIATPKGSSLGNAVNLAVLKLNEQGLLDKLKNKWWYDKGECGS
Q: Does B1 bind?
A: binds
